# Results: the supplement of paper PMC10126150
# ± gives the standard deviation of the averaged measurements.
# System: ATP
# Experiment: switch fluorescence ratio, 500 uM ATP over buffer (Cy3 cluster intensity, sum of 5 cycles each) (fold (ratio)); higher = stronger signal-on switching upon ATP binding; sequences stand for … in TCGTCGGCAGCGTCAGATGTGTATAAGAGACAGTTTTTTTTTTTTTTTTTTTTTTTTT…TC
# Conditions: aptamer strand: ATP DNA aptamer (quencher-CACCTGGGGGAGTATTGCGGAGGAAGG + anchor), 100 nM annealed; ATP concentration: 500 uM
# Procedure, shortened: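 After annealing to 100 nM quencher-labelled ATP aptamer, Cy3-labelled switching-strand clusters on a modified Illumina MiSeq flow-cell were imaged in selection buffer. A second image followed after 15 min with 500 uM ATP at 22 °C, and five such buffer/ATP cycles were done, each separated by NaOH stripping and re-annealing. The fluorescence ratio, averaged per switch-domain sequence, is summed target-cycle over summed buffer-cycle Cy3 intensity per cluster, with clusters outside 100-1000 RFU excluded.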
# 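Further: ATP exposure 15 min at 22 °C before imaging.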
row,Sequence,switch fluorescence ratio
1,GGATAGAGTA,1.01 ± 0.0075
2,GGATAGGGCG,0.946 ± 0.1
3,GGATATGGGG,0.99 ± 0.012
4,GGATATTGCT,0.949 ± 0.043
5,GGATCCAAAT,0.947 ± 0.017
6,GGATCGAAGG,0.96 ± 0.039
7,GGATCGGGCG,0.973 ± 0.051
8,GGATCGTTGA,0.977 ± 0.019
9,GGATCTACCG,1.01 ± 0.032
10,GGATCTTTGA,0.989 ± 0.027
11,GGATGATGA,1.01 ± 0.061
12,GGATGATGGT,0.985 ± 0.037
13,GGATGCGGGT,1 ± 0.03
14,GGATGGAAGG,0.963 ± 0.033
15,GGATGGACAG,1 ± 0.01
16,GGATGGATGG,0.993 ± 0.082
17,GGATGGCTTC,0.9987 ± 0.0023
18,GGATGGGCTG,1 ± 0.094
19,GGATGGGGGG,0.986 ± 0.016
20,GGATGGGGGT,0.9972 ± 0.0097
21,GGATGGGGTT,1 ± 0.018
22,GGATGGGTGG,0.99 ± 0.025
23,GGATGGTGGA,0.9966 ± 0.0093
24,GGATGGTGGT,1.01 ± 0.016
25,GGATGTAAGA,1.1 ± 0.18

row,Sequence,switch fluorescence ratio
1,GGATGTATAG,0.997 ± 0.052
2,GGATTAAAGC,0.998 ± 0.022
3,GGATTACTCT,1.0308 ± 0.00015
4,GGATTACTGG,1.03 ± 0.023
5,GGATTAGCTT,1.01 ± 0.051
6,GGATTAGGTG,1.12 ± 0.017
7,GGATTAGTGT,0.987 ± 0.032
8,GGATTATCGG,0.976 ± 0.023
9,GGATTATGTC,0.975 ± 0.039
10,GGATTATTGG,1.002 ± 0.0083
11,GGATTCAGCT,0.978 ± 0.027
12,GGATTCGAAG,0.9953 ± 0.0071
13,GGATTCTAAT,0.982 ± 0.01
14,GGATTGATGT,0.972 ± 0.011
15,GGATTGGGGA,1.02 ± 0.031
16,GGATTGGTTG,0.999 ± 0.038
17,GGATTGTAAG,0.991 ± 0.032
18,GGATTGTAGG,0.9738 ± 0.0053
19,GGATTGTATT,1.02 ± 0.0055
20,GGATTGTGTT,0.985 ± 0.0018
21,GGATTGTTGG,1.008 ± 0.0033
22,GGATTGTTGT,0.994 ± 0.022
23,GGATTTACGC,1.03 ± 0.03
24,GGATTTCAGG,0.982 ± 0.017
25,GGATTTCCAG,0.999 ± 0.03

row,Sequence,switch fluorescence ratio
1,GGATTTCTTA,1 ± 0.025
2,GGATTTGGTT,1.04 ± 0.036
3,GGATTTGTGG,0.978 ± 0.023
4,GGCAAAAACG,1.16 ± 0.22
5,GGCAAAGGGT,1.06 ± 0.056
6,GGCAACTGGG,1.02 ± 0.05
7,GGCACAGGGG,1.91 ± 0.17
8,GGCACGTGGG,0.999 ± 0.017
9,GGCACTAGGG,0.94 ± 0.077
10,GGCAGAGTGT,1 ± 0.063
11,GGCAGGGGAA,1.01 ± 0.012
12,GGCAGTGCGG,1 ± 0.06
13,GGCATAGTTT,0.969 ± 0.026
14,GGCATATCGT,0.949 ± 0.041
15,GGCATATGTA,0.9829 ± 0.0076
16,GGCATCCAGG,1.38 ± 0.064
17,GGCATGAGAC,1.06 ± 0.047
18,GGCATGGTGG,1.01 ± 0.023
19,GGCATTATAG,0.999 ± 0.0097
20,GGCATTGGAT,0.962 ± 0.034
21,GGCCAAGGTC,1.004 ± 0.004
22,GGCCAAGGTG,2.05 ± 0.42
23,GGCCACTGGA,1.02 ± 0.021
24,GGCCAGGGGG,1 ± 0.09
25,GGCCATCTGG,1.04 ± 0.026

row,Sequence,switch fluorescence ratio
1,GGCCCACCCA,1.02 ± 0.072
2,GGCCCAGAAA,1.003 ± 0.0097
3,GGCCCCTATT,1.023 ± 0.01
4,GGCCCGGGGC,0.995 ± 0.017
5,GGCCCGGGGG,1.01 ± 0.028
6,GGCCCGGTGC,1.08 ± 0.12
7,GGCCCTACAG,1.01 ± 0.036
8,GGCCCTGCAG,1.02 ± 0.042
9,GGCCGAATGG,1.03 ± 0.043
10,GGCCGAGCTC,1.012 ± 0.0085
11,GGCCGCACGC,3.69 ± 0.059
12,GGCCGGGGGA,1.03 ± 0.069
13,GGCCGGGTTC,1.01 ± 0.022
14,GGCCGGTGGA,1.02 ± 0.038
15,GGCCGGTTGG,0.9744 ± 0.0068
16,GGCCGTAGAA,0.985 ± 0.032
17,GGCCGTTCAT,0.972 ± 0.011
18,GGCCTAAAGG,1.005 ± 0.0082
19,GGCCTCGACC,1.03 ± 0.0086
20,GGCCTGCCAT,0.9813 ± 0.0095
21,GGCGAAAACT,1.073 ± 0.0052
22,GGCGAAGTGC,1.03 ± 0.013
23,GGCGAGTGAG,1.03 ± 0.029
24,GGCGAGTTT,1 ± 0.021
25,GGCGATGGGG,0.979 ± 0.023

row,Sequence,switch fluorescence ratio
1,GGCGATTGCG,0.979 ± 0.0041
2,GGCGATTGGA,1 ± 0.016
3,GGCGATTTTG,0.958 ± 0.03
4,GGCGCAGCAA,1.47 ± 0.091
5,GGCGCATAGG,1.11 ± 0.02
6,GGCGCATGTC,1.14 ± 0.029
7,GGCGCGATGG,1.55 ± 0.13
8,GGCGCTTAGA,1 ± 0.053
9,GGCGGAGGGT,0.986 ± 0.03
10,GGCGGATTGG,1.02 ± 0.015
11,GGCGGCATGG,1.04 ± 0.023
12,GGCGGCTGAG,1 ± 0.067
13,GGCGGGACGA,0.973 ± 0.036
14,GGCGGGAGGG,0.986 ± 0.029
15,GGCGGGGAAA,0.981 ± 0.045
16,GGCGGGGGAC,0.987 ± 0.057
17,GGCGGGGGCA,0.995 ± 0.024
18,GGCGGGGGCT,0.99 ± 0.018
19,GGCGGGTGAG,1.03 ± 0.025
20,GGCGGTAATG,1.036 ± 0.005
21,GGCGGTAGTG,0.999 ± 0.025
22,GGCGGTATAT,0.99 ± 0.027
23,GGCGGTATGT,0.975 ± 0.028
24,GGCGTAAATG,1.02 ± 0.0066
25,GGCGTAATAT,1.54 ± 0.085

row,Sequence,switch fluorescence ratio
1,GGCGTAGGCC,1.2 ± 0.29
2,GGCGTATATG,0.973 ± 0.027
3,GGCGTGATGC,1.091 ± 0.0076
4,GGCGTGCGTA,1.01 ± 0.026
5,GGCGTTCTTG,0.962 ± 0.015
6,GGCGTTGGCT,0.985 ± 0.011
7,GGCTAACAAG,1.01 ± 0.02
8,GGCTAAGAAT,1.03 ± 0.058
9,GGCTAAGGGG,0.992 ± 0.023
10,GGCTAAGTTT,0.97 ± 0.02
11,GGCTAGAATC,0.986 ± 0.024
12,GGCTAGGGGA,1.13 ± 0.21
13,GGCTATTGGA,0.971 ± 0.012
14,GGCTCAATTT,0.967 ± 0.012
15,GGCTGAAGAG,1.02 ± 0.033
16,GGCTGAGTTA,1.021 ± 0.0025
17,GGCTGGGGTA,0.9884 ± 0.0032
18,GGCTGGTTGG,1.01 ± 0.017
19,GGCTGTTATT,0.986 ± 0.039
20,GGCTGTTTGG,1 ± 0.012
21,GGCTTAAGTA,0.9833 ± 0.0084
22,GGCTTATGGA,0.98 ± 0.038
23,GGCTTCCCGG,1.16 ± 0.002
24,GGCTTCTAAG,0.994 ± 0.026
25,GGCTTGAACA,1.01 ± 0.034

row,Sequence,switch fluorescence ratio
1,GGCTTGCGGT,0.9974 ± 0.004
2,GGCTTTACGG,1.012 ± 0.0081
3,GGCTTTGGAT,0.977 ± 0.018
4,GGCTTTGGCG,1.01 ± 0.015
5,GGCTTTGGGG,0.975 ± 0.04
6,GGCTTTTGGG,1.03 ± 0.088
7,GGGAAAAAGG,0.983 ± 0.029
8,GGGAAAACCA,1.01 ± 0.0098
9,GGGAAAATCA,0.999 ± 0.02
10,GGGAAAGAAC,1.15 ± 0.2
11,GGGAAAGGCA,1.015 ± 0.0076
12,GGGAAAGTAT,0.982 ± 0.032
13,GGGAAATGTT,1.06 ± 0.016
14,GGGAAATTAG,1 ± 0.026
15,GGGAAATTGT,0.997 ± 0.017
16,GGGAACAGCA,1.027 ± 0.0047
17,GGGAACGATC,1.003 ± 0.0083
18,GGGAACGGCC,1.054 ± 0.0036
19,GGGAACGTTT,0.993 ± 0.011
20,GGGAAGCATG,1.02 ± 0.022
21,GGGAAGCATT,0.989 ± 0.023
22,GGGAAGCGCC,0.9967 ± 0.0032
23,GGGAAGGCGG,1.02 ± 0.027
24,GGGAAGTATG,1 ± 0.057
25,GGGAAGTCAA,1.02 ± 0.032

row,Sequence,switch fluorescence ratio
1,GGGAAGTCGG,0.9824 ± 0.0094
2,GGGAAGTGAG,1.013 ± 0.006
3,GGGAATAATA,0.991 ± 0.023
4,GGGAATAATG,1.01 ± 0.0091
5,GGGAATACGT,1.03 ± 0.029
6,GGGAATAGCG,0.977 ± 0.046
7,GGGAATCGCT,0.973 ± 0.023
8,GGGAATGGGA,0.997 ± 0.027
9,GGGAATTGTT,0.977 ± 0.014
10,GGGACACGGC,0.996 ± 0.059
11,GGGACAGGCG,0.991 ± 0.095
12,GGGACCCAAG,1.02 ± 0.046
13,GGGACGCGCA,0.984 ± 0.036
14,GGGACGGAAA,1.11 ± 0.16
15,GGGACGGCGG,1.004 ± 0.0087
16,GGGACTATTT,1.01 ± 0.013
17,GGGACTGGGG,1.02 ± 0.061
18,GGGAGAAAAT,1.02 ± 0.011
19,GGGAGAATAG,0.985 ± 0.036
20,GGGAGAATTG,1.01 ± 0.037
21,GGGAGACGGT,1.02 ± 0.068
22,GGGAGAGCA,0.9821 ± 0.0098
23,GGGAGAGGTG,0.989 ± 0.027
24,GGGAGCCAGT,1.05 ± 0.12
25,GGGAGCGTTT,0.981 ± 0.046
